Assay results published in US20260014232A1, “Pharmaceutical Composition of GLP-1 and GIP Receptor Dual Agonist and Use Thereof” (Jiangsu Hengrui Pharmaceuticals Co., Ltd., priority 2021, published 2026).
Starred links: 1 amine or outer side, 2 acyl side, 3 side chain; linkers in the order of their positions; H or OH if unused. Non-standard residues stand in square brackets, D forms with d. Groups on a side chain read outwards from the residue. No end group written: not given here. *: point of attachment. Arachidoyl = CCCCCCCCCCCCCCCCCCCC(=O)*; γGlu = O=C(O)[C@H](CCC(=O)[*:2])N[*:1]; AEEA = NCCOCCOCC(=O)O; Aib = CC(C)(N)C(=O)O

Legend:
Test in all cases: cell-based or functional assay
[1] = target: human glucose-dependent insulinotropic polypeptide receptor (GIPR) (human) (UniProt P48546)
[2] = target: human glucagon-like peptide-1 receptor (GLP-1R) (human, UniProt P43220 24-463)
[3] = target: T1, human glucose-dependent insulinotropic polypeptide receptor (GIPR) (human, UniProt P48546 22-466)
T1 sequence (looked up): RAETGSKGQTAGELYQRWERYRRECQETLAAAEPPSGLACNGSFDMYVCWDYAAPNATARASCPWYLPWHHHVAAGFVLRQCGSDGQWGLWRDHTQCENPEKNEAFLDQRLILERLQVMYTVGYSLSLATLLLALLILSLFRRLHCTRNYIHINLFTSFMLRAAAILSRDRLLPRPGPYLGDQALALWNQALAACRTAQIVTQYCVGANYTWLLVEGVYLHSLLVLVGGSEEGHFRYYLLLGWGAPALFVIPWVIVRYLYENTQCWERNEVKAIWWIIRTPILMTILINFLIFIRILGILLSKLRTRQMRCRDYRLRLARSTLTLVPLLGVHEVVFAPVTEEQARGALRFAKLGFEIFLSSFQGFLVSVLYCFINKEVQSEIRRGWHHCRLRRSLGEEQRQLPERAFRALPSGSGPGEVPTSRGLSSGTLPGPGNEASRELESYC

Row | Molecule | Activity against human GIPR (EC50 nM); cAMP HTRF, CHO-K1 cells overexpressing hGIP receptor [1] | Activity against human GLP-1R (EC50 nM); cAMP HTRF, CHO-K1/GLP-1R/CRE-luc cells [2] | Activity against human GIPR (EC50 nM); cAMP HTRF, CHO-K1 cells overexpressing hGIP receptor [3]
1 | Semaglutide (peptide) | > 10 nM | – | –
2 | Natural GIP (from UniProt P09681 52-93) (ligand) | 0.006 nM | – | –
3 | Y[Aib]EGTFTSDYSIYK([AEEA-AEEA-γGlu-Arachidoyl])ERIAAQEFINWLIAGGPSSGAPPPS-NH2 (N-terminus assumed; SMILES CCCCCCCCCCCCCCCCCCCC(=O)N[C@@H](CCC(=O)NCCOCCOCC(=O)NCCOCCOCC(=O)NCCCC[C@H](NC(=O)[C@H](Cc1ccc(O)cc1)NC(=O)[C@@H](NC(=O)[C@H](CO)NC(=O)[C@H](Cc1ccc(O)cc1)NC(=O)[C@H](CC(=O)O)NC(=O)[C@H](CO)NC(=O)[C@@H](NC(=O)[C@H](Cc1ccccc1)NC(=O)[C@@H](NC(=O)CNC(=O)[C@H](CCC(=O)O)NC(=O)C(C)(C)NC(=O)[C@@H](N)Cc1ccc(O)cc1)[C@@H](C)O)[C@@H](C)O)[C@@H](C)CC)C(=O)N[C@@H](CCC(=O)O)C(=O)N[C@@H](CCCNC(=N)N)C(=O)N[C@H](C(=O)N[C@@H](C)C(=O)N[C@@H](C)C(=O)N[C@@H](CCC(N)=O)C(=O)N[C@@H](CCC(=O)O)C(=O)N[C@@H](Cc1ccccc1)C(=O)N[C@H](C(=O)N[C@@H](CC(N)=O)C(=O)N[C@@H](Cc1c[nH]c2ccccc12)C(=O)N[C@@H](CC(C)C)C(=O)N[C@H](C(=O)N[C@@H](C)C(=O)NCC(=O)NCC(=O)N1CCC[C@H]1C(=O)N[C@@H](CO)C(=O)N[C@@H](CO)C(=O)NCC(=O)N[C@@H](C)C(=O)N1CCC[C@H]1C(=O)N1CCC[C@H]1C(=O)N1CCC[C@H]1C(=O)N[C@@H](CO)C(N)=O)[C@@H](C)CC)[C@@H](C)CC)[C@@H](C)CC)C(=O)O) [compound 15#] | – | 0.015 nM | 0.23 nM
4 | Y[Aib]EGTFTSDYSIYK([AEEA-AEEA-γGlu-Arachidoyl])EKIAAQEFINWLLAGGPSSGAPPPS-NH2 (N-terminus assumed; SMILES CCCCCCCCCCCCCCCCCCCC(=O)N[C@@H](CCC(=O)NCCOCCOCC(=O)NCCOCCOCC(=O)NCCCC[C@H](NC(=O)[C@H](Cc1ccc(O)cc1)NC(=O)[C@@H](NC(=O)[C@H](CO)NC(=O)[C@H](Cc1ccc(O)cc1)NC(=O)[C@H](CC(=O)O)NC(=O)[C@H](CO)NC(=O)[C@@H](NC(=O)[C@H](Cc1ccccc1)NC(=O)[C@@H](NC(=O)CNC(=O)[C@H](CCC(=O)O)NC(=O)C(C)(C)NC(=O)[C@@H](N)Cc1ccc(O)cc1)[C@@H](C)O)[C@@H](C)O)[C@@H](C)CC)C(=O)N[C@@H](CCC(=O)O)C(=O)N[C@@H](CCCCN)C(=O)N[C@H](C(=O)N[C@@H](C)C(=O)N[C@@H](C)C(=O)N[C@@H](CCC(N)=O)C(=O)N[C@@H](CCC(=O)O)C(=O)N[C@@H](Cc1ccccc1)C(=O)N[C@H](C(=O)N[C@@H](CC(N)=O)C(=O)N[C@@H](Cc1c[nH]c2ccccc12)C(=O)N[C@@H](CC(C)C)C(=O)N[C@@H](CC(C)C)C(=O)N[C@@H](C)C(=O)NCC(=O)NCC(=O)N1CCC[C@H]1C(=O)N[C@@H](CO)C(=O)N[C@@H](CO)C(=O)NCC(=O)N[C@@H](C)C(=O)N1CCC[C@H]1C(=O)N1CCC[C@H]1C(=O)N1CCC[C@H]1C(=O)N[C@@H](CO)C(N)=O)[C@@H](C)CC)[C@@H](C)CC)C(=O)O) [compound 16#] | – | 0.029 nM | 0.095 nM
5 | Y[Aib]EGTFTSDYSIYK([AEEA-AEEA-γGlu-Arachidoyl])ERIAAQEFVNWLLAGGPSSGAPPPS-NH2 (N-terminus assumed; SMILES CCCCCCCCCCCCCCCCCCCC(=O)N[C@@H](CCC(=O)NCCOCCOCC(=O)NCCOCCOCC(=O)NCCCC[C@H](NC(=O)[C@H](Cc1ccc(O)cc1)NC(=O)[C@@H](NC(=O)[C@H](CO)NC(=O)[C@H](Cc1ccc(O)cc1)NC(=O)[C@H](CC(=O)O)NC(=O)[C@H](CO)NC(=O)[C@@H](NC(=O)[C@H](Cc1ccccc1)NC(=O)[C@@H](NC(=O)CNC(=O)[C@H](CCC(=O)O)NC(=O)C(C)(C)NC(=O)[C@@H](N)Cc1ccc(O)cc1)[C@@H](C)O)[C@@H](C)O)[C@@H](C)CC)C(=O)N[C@@H](CCC(=O)O)C(=O)N[C@@H](CCCNC(=N)N)C(=O)N[C@H](C(=O)N[C@@H](C)C(=O)N[C@@H](C)C(=O)N[C@@H](CCC(N)=O)C(=O)N[C@@H](CCC(=O)O)C(=O)N[C@@H](Cc1ccccc1)C(=O)N[C@H](C(=O)N[C@@H](CC(N)=O)C(=O)N[C@@H](Cc1c[nH]c2ccccc12)C(=O)N[C@@H](CC(C)C)C(=O)N[C@@H](CC(C)C)C(=O)N[C@@H](C)C(=O)NCC(=O)NCC(=O)N1CCC[C@H]1C(=O)N[C@@H](CO)C(=O)N[C@@H](CO)C(=O)NCC(=O)N[C@@H](C)C(=O)N1CCC[C@H]1C(=O)N1CCC[C@H]1C(=O)N1CCC[C@H]1C(=O)N[C@@H](CO)C(N)=O)C(C)C)[C@@H](C)CC)C(=O)O) [compound 17#] | – | 0.022 nM | 0.11 nM
6 | Y[Aib]EGTFTSDYSIYK([AEEA-AEEA-γGlu-Arachidoyl])ERIAAQEFVNWLIAGGPSSGAPPPS-NH2 (N-terminus assumed; SMILES CCCCCCCCCCCCCCCCCCCC(=O)N[C@@H](CCC(=O)NCCOCCOCC(=O)NCCOCCOCC(=O)NCCCC[C@H](NC(=O)[C@H](Cc1ccc(O)cc1)NC(=O)[C@@H](NC(=O)[C@H](CO)NC(=O)[C@H](Cc1ccc(O)cc1)NC(=O)[C@H](CC(=O)O)NC(=O)[C@H](CO)NC(=O)[C@@H](NC(=O)[C@H](Cc1ccccc1)NC(=O)[C@@H](NC(=O)CNC(=O)[C@H](CCC(=O)O)NC(=O)C(C)(C)NC(=O)[C@@H](N)Cc1ccc(O)cc1)[C@@H](C)O)[C@@H](C)O)[C@@H](C)CC)C(=O)N[C@@H](CCC(=O)O)C(=O)N[C@@H](CCCNC(=N)N)C(=O)N[C@H](C(=O)N[C@@H](C)C(=O)N[C@@H](C)C(=O)N[C@@H](CCC(N)=O)C(=O)N[C@@H](CCC(=O)O)C(=O)N[C@@H](Cc1ccccc1)C(=O)N[C@H](C(=O)N[C@@H](CC(N)=O)C(=O)N[C@@H](Cc1c[nH]c2ccccc12)C(=O)N[C@@H](CC(C)C)C(=O)N[C@H](C(=O)N[C@@H](C)C(=O)NCC(=O)NCC(=O)N1CCC[C@H]1C(=O)N[C@@H](CO)C(=O)N[C@@H](CO)C(=O)NCC(=O)N[C@@H](C)C(=O)N1CCC[C@H]1C(=O)N1CCC[C@H]1C(=O)N1CCC[C@H]1C(=O)N[C@@H](CO)C(N)=O)[C@@H](C)CC)C(C)C)[C@@H](C)CC)C(=O)O) [compound 13#] | – | 0.017 nM | 0.13 nM
7 | Y[Aib]EGTFTSDYSIYK([AEEA-AEEA-γGlu-Arachidoyl])EKIAAQEFVNWLLAGGPSSGAPPPS-NH2 [compound 18#] | – | 0.013 nM | 0.06 nM
8 | Y[Aib]EGTFTSDYSIYK([AEEA-AEEA-γGlu-Arachidoyl])EKIAAQEFINWLIAGGPSSGAPPPS-NH2 (N-terminus assumed; SMILES CCCCCCCCCCCCCCCCCCCC(=O)N[C@@H](CCC(=O)NCCOCCOCC(=O)NCCOCCOCC(=O)NCCCC[C@H](NC(=O)[C@H](Cc1ccc(O)cc1)NC(=O)[C@@H](NC(=O)[C@H](CO)NC(=O)[C@H](Cc1ccc(O)cc1)NC(=O)[C@H](CC(=O)O)NC(=O)[C@H](CO)NC(=O)[C@@H](NC(=O)[C@H](Cc1ccccc1)NC(=O)[C@@H](NC(=O)CNC(=O)[C@H](CCC(=O)O)NC(=O)C(C)(C)NC(=O)[C@@H](N)Cc1ccc(O)cc1)[C@@H](C)O)[C@@H](C)O)[C@@H](C)CC)C(=O)N[C@@H](CCC(=O)O)C(=O)N[C@@H](CCCCN)C(=O)N[C@H](C(=O)N[C@@H](C)C(=O)N[C@@H](C)C(=O)N[C@@H](CCC(N)=O)C(=O)N[C@@H](CCC(=O)O)C(=O)N[C@@H](Cc1ccccc1)C(=O)N[C@H](C(=O)N[C@@H](CC(N)=O)C(=O)N[C@@H](Cc1c[nH]c2ccccc12)C(=O)N[C@@H](CC(C)C)C(=O)N[C@H](C(=O)N[C@@H](C)C(=O)NCC(=O)NCC(=O)N1CCC[C@H]1C(=O)N[C@@H](CO)C(=O)N[C@@H](CO)C(=O)NCC(=O)N[C@@H](C)C(=O)N1CCC[C@H]1C(=O)N1CCC[C@H]1C(=O)N1CCC[C@H]1C(=O)N[C@@H](CO)C(N)=O)[C@@H](C)CC)[C@@H](C)CC)[C@@H](C)CC)C(=O)O) [compound 14#] | – | 0.013 nM | 0.13 nM
